{"source": "patent US11001846B2", "about": "“Aptamers, nucleic acid molecules, polynucleotides, synthetic antibodies compositions for detecting PRRS viruses and treating PRRS virus infection” (AEROVIRUS TECHNOLOGIES INC., priority 2015, dated 2021)", "molecules": {"B1": {"name": "A505: ssDNA aptamer binding type 2 PRRSV M-S-S-GP5 complex (nucleic acid)", "DNA": "GGGCGACCCTGAAGAGTTTGTAATCTGCGATTTTAAAGTTGAGTCGTCGCGAAACGGTGAAAGCCGTAGGTTGCCC", "modifications": "DNA, backbone and methylation of C not given here"}}, "key": {"LHVA-3 PRRS virus": {"system": "LHVA-3 PRRS virus", "assay": "MTT assay, in vitro protection of PAMs or MARC-145 cells from LHVA-3 infection", "type": "cell-based, PRRSV", "details": "for protective effect when added after virus incubation: FIG. 9d", "procedure": "PAMs or MARC-145 cells were plated in 96 well plates (7×10^4/well) one day prior to the assay. […] Following infection, cells were incubated in growth medium at 37° C. for 72 hours. MTT assay was performed by adding 4 mg/ml MTT (3-[4,5-Dimethylthiazol-2-yl]-2,5-diphenyltetrazolium bromide dissolved in PBS to the cell cultures and incubation at 37° C. for 3 hours. Plates were then centrifuged at 800×g for 10 min. Supernatants were aspirated and the formazan dye was dissolved in 150 μl/well of isopropyl alcohol, and O.D. values were determined with an ELISA reader at 570 nm.\nIn Vitro Viral Protection Prior to Viral Infection PAMs or MARC-145 cells were plated on 96 well plates (7×10^4/well) 24 hours prior to the experiment. Each well was washed twice with DPBS prior to treating the cells with various amounts of A505 (12.5 to 2000 pmole) at 37° C. for the indicated time points. […] Following incubation, cells were transferred to growth medium and incubated at 37° C. for 72 hours. Thereafter an MTT assay was implemented as described.\nIn Vitro Viral Protection Following Viral Infection—PAMs or MARC-145 cells were plated on 96 well plates (7×10^4/well) 24 hours prior to viral infection. Viral infection was effected as described above. Infected cells were gently washed with DPBS for 3 times. Cells were then treated with various amounts of A505 (12.5 to 2000 pmole) for 1 hour at 37° C. Following incubation, cells were transferred to growth medium and incubated at 37° C. for 72 hours. Thereafter an MTT assay was implemented as described."}, "[1]": {"system": "type-1 Lelystad PRRS virus", "assay": "Strain-specific neutralization (FIG. 11), type 1 strain", "type": "cell-based, PRRSV", "procedure": "In Vitro Viral Protection Prior to Viral Infection PAMs or MARC-145 cells were plated on 96 well plates (7×10^4/well) 24 hours prior to the experiment. Each well was washed twice with DPBS prior to treating the cells with various amounts of A505 (12.5 to 2000 pmole) at 37° C. for the indicated time points. Cells were then washed twice with DPBS and infected with 500 TCID50 LHVA-3 (or NVSL or VR-2332 or Lelystad) for 1 hour in enriched HBSS. Following incubation, cells were transferred to growth medium and incubated at 37° C. for 72 hours. Thereafter an MTT assay was implemented as described."}, "LHVA-93-3 PRRS virus [2]": {"system": "LHVA-93-3 PRRS virus", "assay": "In-vivo protection of swine from PRRSV infection (Example 3)", "procedure": "Swine—SPF American Yorkshire swine at the age of 10-12 weeks were purchased. The selected swine were all exempt of PRRSV, SIV, and Mycoplasma Hyopneumoniae.\n(§1) Swine were inoculated intranasally with sub-lethal infectious fluid containing 40TCID50/ml PRRS virus (LHVA-93-3) with or without 2.5 nmole A505 aptamer for different time intervals. Pig body weight was monitored for 2 weeks. Viral titer in the lungs was determined by the CPE titration method (OIE Terrestrial Manual—May 2015, Chapter 2.8.7—Porcine Reproductive and Respiratory Syndrome, section 1.1.3). Other pigs were sacrificed 6 days following viral inoculation and lungs were removed and homogenized in PBS 0.1% BSA (10% w/v). Following homogenization, samples were centrifuged to remove debris and stored at −80° C.\n(§2) The cells/viruses were incubated for 2-5 days and observe daily for a CPE. At day 2, seed macrophages in new microtitre plates. Fifty (50) μl of the supernatants were transferred from the plates of the first passage to the corresponding wells of the freshly seeded plates (second passage). The wells were incubated for 2-5 days and observed daily for a CPE. The results of the CPE assays were presented as log TCID50.\nFor lung histology, pigs were sacrificed at day 7 and lungs were removed into 10% neutral buffered formalin (pH 7.0). Lungs were then sectioned and stained with haemotoxylin and eosin.\nThe antiviral properties of A505 were determined in vivo prior to and following viral infection. Briefly, the swine were divided into four groups designated ‘untreated’, ‘0 day’, ‘+1 day’ and ‘+2 day’. Each pig was challenged with 40 TCID50/ml of LHVA-93-3 PRRS viruses. Pigs in ‘0 day’ group were inoculated with a mixture of the virus and 2.5 μmole/ml A505, intranasally (i.n.). Pigs in ‘+1 day’ and ‘+2 day’ groups were inoculated with 2.5 μmole/ml A505, in 1 day or 2 days following virus infection, respectively. PRRS infection was monitored by three parameters, including (i) body weight loss during 14 days following virus treatment; (ii) lung virus titre; (iii) histological examination of lungs—sections were taken 7 days following virus inoculation."}, "LHVA-93-3 PRRS virus [3]": {"system": "LHVA-93-3 PRRS virus", "assay": "In-vivo lung virus titer, LHVA-93-3, comparison with control oligonucleotide and Tilmicosin (Example 4)", "set-up": "species or system swine", "details": "intra-nasal", "procedure": "as §1, §2\nTilmicosin (Pulmotil®) was purchased from Eli Lilly (Elanco®), Canada.\nWere implemented as described hereinabove. A dose of 15 ug/Kg of A505 was used.\nThe ability of the A505 aptamer to inhibit PRRSV infection was also compared to that of one of the currently available “anti-PRRSV” drugs, the antibiotic Tilmicosin. To this end, both A505 and Tilmicosin were administered once, together with the virus, using the intra-nasal route. As is shown in Table 2 below, a dose of 60 mg/pig of Tilmicosin (1 mg/kg body weight) reduced virus titer by 0.42 log TCID50, representing a 2.6-fold reduction in virus burden. This is in comparison to a reduction by 1.21 log TCID50 affected by A505 in this particular experiment (over 10 fold reduction in virus burden)."}, "type 2 PRRSV": {"system": "type 2 PRRSV", "details": "after MTT screening of 10 candidates", "source_text": "Using various tetrazolium (MTT) colorimetric assay procedures^[xxxvi], these aptamers have been “screened” to identify the ones having the highest and fastest binding capabilities for detection and therapeutics purposes for both types of PRRSV. It should be pointed out that the aptamer having the quickest binding efficiency but not necessarily the highest binding strength is the most suitable one for the biosensor."}}, "note": "Where “and” joins values, the source holds several entries; their conditions need not be identical. Identical values can stand only once.", "data": [{"molecule": "B1", "values": [{"measurement": "survival rate of cells pre-incubated with aptamer then washed before infection", "setting": "LHVA-3 PRRS virus; 500 pmole for 30 min or 60 min, repeated washing, then virus, FIG. 9c", "result": "no significant difference between the survival rate of non-treated and treated cells"}, {"measurement": "protection against infection of the cells", "setting": "LHVA-3 PRRS virus; 500 pmole, LHVA-3, compared to non-infected MARC-145 cells, FIG. 9b", "result": "~60", "unit": "%"}, {"measurement": "protective effect when added after virus incubation", "setting": "LHVA-3 PRRS virus; 500 TCID50 LHVA-93-3 for 30 min prior to 500 pmole aptamer, vs infected cells", "result": "highly significant difference"}, {"measurement": "protective effect when added after virus incubation", "setting": "LHVA-3 PRRS virus; 500 TCID50 LHVA-93-3 for 60 min prior to 500 pmole aptamer", "result": "not significant"}, {"measurement": "virus-associated cell-death", "setting": "LHVA-3 PRRS virus; cells treated with aptamer prior to viral infection, FIG. 9a", "result": "significant reduction in virus-associated cell-death"}, {"measurement": "effect on type-1 Lelystad PRRS virus", "setting": "[1]", "result": "has not effect"}, {"measurement": "body weight loss", "setting": "LHVA-93-3 PRRS virus [2]; 14 days, treatment groups +2 day, 0 day, +1 day vs control group, FIG. 12a", "result": "significantly lower weight loss and enhanced recovery"}, {"measurement": "protection equivalent to lung virus titer difference", "setting": "LHVA-93-3 PRRS virus [2]; '0 day' group", "result": "over 99%"}, {"measurement": "difference in lung virus titer compared to the non-treated group", "setting": "LHVA-93-3 PRRS virus [2]; '0 day' group, 2.5 μmole/ml A505 i.n. mixed with virus, 40 TCID50/ml, FIG. 12b", "result": "more than 2 log"}, {"measurement": "protection in lung virus titer, treatment after infection", "setting": "LHVA-93-3 PRRS virus [2]; '+1 day' and '+2 day' groups", "result": "Further protection"}, {"measurement": "reduction of viral load in the lungs vs infected group", "setting": "LHVA-93-3 PRRS virus [2]; all three A505-treated groups, six days after infection, p<0.05, FIG. 12b", "result": "statistically significant"}, {"measurement": "lung histology, inflamed areas", "setting": "LHVA-93-3 PRRS virus [2]; sections 7 days after virus inoculation, intranasal A505", "result": "reduces the inflamed areas in lungs"}, {"measurement": "Reduction Factor", "setting": "LHVA-93-3 PRRS virus [3]; Table 2, administered once with the virus", "result": 17.1}, {"measurement": "Δ (log TCID50), reduction of virus titer", "setting": "LHVA-93-3 PRRS virus [3]; administered once together with the virus, Tilmicosin 60 mg/pig (1 mg/kg), A505 15 ug/Kg", "result": "1.21 log TCID50 and 1.23 log TCID50"}, {"measurement": "reduction in virus burden", "setting": "LHVA-93-3 PRRS virus [3]; administered once with the virus", "result": "over 10 fold"}, {"measurement": "binding capabilities from biosensing and therapeutic perspectives", "setting": "type 2 PRRSV", "result": "highest binding capabilities"}]}]}
